The target of assay [1] is T1, human IL-17RA on HT1080 cells (human, UniProt Q96F46 33-866).
T1 sequence: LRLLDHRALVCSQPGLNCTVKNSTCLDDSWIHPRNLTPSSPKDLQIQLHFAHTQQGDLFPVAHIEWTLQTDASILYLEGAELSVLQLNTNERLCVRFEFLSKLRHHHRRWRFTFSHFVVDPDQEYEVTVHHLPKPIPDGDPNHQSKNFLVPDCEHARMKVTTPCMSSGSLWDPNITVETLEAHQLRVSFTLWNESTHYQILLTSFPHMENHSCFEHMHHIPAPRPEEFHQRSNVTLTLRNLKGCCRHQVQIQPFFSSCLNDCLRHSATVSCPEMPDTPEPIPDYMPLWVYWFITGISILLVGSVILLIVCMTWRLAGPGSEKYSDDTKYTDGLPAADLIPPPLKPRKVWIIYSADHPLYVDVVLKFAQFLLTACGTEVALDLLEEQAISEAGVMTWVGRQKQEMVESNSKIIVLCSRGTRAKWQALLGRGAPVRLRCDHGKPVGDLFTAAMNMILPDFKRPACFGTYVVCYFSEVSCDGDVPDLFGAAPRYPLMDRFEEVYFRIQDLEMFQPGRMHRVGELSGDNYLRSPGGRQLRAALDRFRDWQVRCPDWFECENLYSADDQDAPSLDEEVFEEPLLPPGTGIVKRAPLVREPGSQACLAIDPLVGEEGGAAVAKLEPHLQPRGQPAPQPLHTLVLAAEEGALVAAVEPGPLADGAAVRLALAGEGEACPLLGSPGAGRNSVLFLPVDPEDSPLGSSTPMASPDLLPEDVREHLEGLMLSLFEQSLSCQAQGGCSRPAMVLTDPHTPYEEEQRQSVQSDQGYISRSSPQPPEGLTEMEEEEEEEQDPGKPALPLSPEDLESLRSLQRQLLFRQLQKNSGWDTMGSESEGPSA
Description: cell-based or functional assay.

Assay [2] concerns the target T1, human IL-17RA on HT1080 cells. Description: cell-based or functional assay. The source holds these as a separate data set.
Assay [3] addresses T2, recombinant human IL-17RA Fc fusion protein (R&D Systems 177-IR-100) (human, UniProt Q96F46 33-320).
T2 construct: Bought protein; not shown: Fc domain of human IgG1
T2 sequence: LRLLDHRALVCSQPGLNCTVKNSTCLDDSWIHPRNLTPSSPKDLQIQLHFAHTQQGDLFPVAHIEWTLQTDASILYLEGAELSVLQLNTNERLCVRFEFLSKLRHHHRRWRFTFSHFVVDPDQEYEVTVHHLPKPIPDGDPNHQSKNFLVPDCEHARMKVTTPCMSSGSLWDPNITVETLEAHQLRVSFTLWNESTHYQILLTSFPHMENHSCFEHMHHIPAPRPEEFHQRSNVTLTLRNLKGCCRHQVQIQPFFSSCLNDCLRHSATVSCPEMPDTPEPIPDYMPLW
The experiment in a line: affinity against parent clone 2.1; method not given.

Assay [4] concerns the target T2, recombinant human IL-17RA Fc fusion …. Description: BIAcore T200 single-cycle kinetics, IL-17RA-Fc captured on protein G chip, VH as analyte. As to the method: Binding kinetics of anti-IL-17RA VH antibodies were measured on a BIAcore® T200 instrument. For IL-17RA, first a protein G chip was prepared by diluting protein G to 20 ug/ml in acetate buffer, pH 4 (BIAcore®, cat# BR-100-49) and then coupled 1200 RU to a CM5 Series S chip using amine coupling chemistry. This surface was then used to capture IL-17RA Fc fusion protein from solution: IL-17RA at 10 ug/ml in HBS injected for 10 seconds at 30 ul/min flow rate would capture approximately 100-150 RU of IL-17RA onto the protein G surface.
Binding kinetics of anti-IL-17RA VH antibodies were determined by single-cycle kinetics. VH antibodies were prepared in dilution series (typically 1:3 dilution series starting with 100 nM VH at the highest concentration), and then injected over the antigen coated surfaces and also a blank surface, starting with the lowest concentration of VH and then working progressively up to the highest concentration. VH binding kinetics were then determined from the (blank subtracted) sensorgram traces using 1:1 binding models and BIAevaluation software.

Assay [5] has the same target. The experiment in a line: receptor/ligand biochemical inhibition ELISA: VH competes with 1 nM IL-17A for coated IL-17RA-Fc. As to the method: (§1) VH, both purified and crude periplasmic extracts, were also tested for their ability to inhibit the interaction of IL-17A with recombinant IL-17RA-Fc. […] Following washing of excess coating antigen, as described above, the wells of the plate were incubated with 3% Marvel/PBS to block non-specific protein interactions. VH preparations, crude periplasmic extracts or purified VH, or suitable controls, were prepared with 1 nM recombinant IL-17A (Peprotech, cat# AF-200-17) in 3% skimmed milk powder/PBS solution in polypropylene plates or tubes. The mixture was then transferred to the assay plate and incubated for 1 hour at room temperature. Excess protein was removed by washing and bound IL-17A was detected by incubation with biotinylated anti-IL-17A Mab (R & D Systems, cat BAF317) followed by the addition of neutravidin-HRP (Pierce, cat#31030) and TMB substrate (Sigma, cat# T0440). The TMB reaction was stopped by addition of 0.5M H₂SO₄ and absorbances were measured at 450 nm in a plate reader.
For orientation: In an ELISA, binding on a coated surface is turned into a signal by an enzyme label.

The target is the same in assay [6]. Description: IL-17RA ligand inhibition ELISA (FIG. 10B): VH competes with IL-17A for coated IL-17RA-Fc. As to the method: as §1

As usually defined, the Kd is the free concentration of one partner at which half of the binding sites on the other are occupied at equilibrium, for simple one-to-one binding. A word on the koff: it is a measure of how fast the partners let go of each other. The term kon denotes the second-order rate constant of association. For orientation: IC50 means the concentration needed to halve the response being measured.

B1: VH clone 2.2 (VHH)
VHH: QVQLVQSGAEVKKPGASVKVSCKASGYPFTSYDINWVRQATGRSLEWMGWMNPTNGNTVYAQKFQDRVTMTRNTSISTAYMELSSLRSEDTAVYFCARGRRDDWKNNYWGQGTLVTVSS
notes: Human VH single domain antibody, no light chain; Optimised variant of clone 2.1; also called VH 2.2
For B1, in assay [1], the “IC50 (nM), cell-based assay” value was 165 nM. Also, the “Cell assay IC50” value in assay [2] was 61 nM. Further, the “fold improvement in affinity against clone 2.1” value in assay [3] is 10 fold. In assay [4], the Kd came out at 1.4 nM, the koff was 0.000799 s⁻¹ and the kon stood at 579000 M⁻¹ s⁻¹. In addition, in assay [5], the IC50 came to 1.4 nM.

B2: VH clone 3.20 (VHH)
VHH: QVQLVESGGGLVQPGGSLRLSCAASGFPFSTYWMRWLRQAPGKGLEWVANIKQDGSEKYYVDSVKGRFTISRDNAKNSLFLQMNSLRAEDTAVYYCARGWESGWFEPWGQGTLVTVSS
notes: Human VH single domain antibody, no light chain; Family 3; also called VH 3.20
Regarding B2, the IC50 in assay [6] was found to be 22 nM.

For the origin of these results see US20180215829A1 (CRESCENDO BIOLOGICS, published 2018).
